According to patent US7022489 (dated 2006):

T1: rat GALR3 (rat)
T1 chain: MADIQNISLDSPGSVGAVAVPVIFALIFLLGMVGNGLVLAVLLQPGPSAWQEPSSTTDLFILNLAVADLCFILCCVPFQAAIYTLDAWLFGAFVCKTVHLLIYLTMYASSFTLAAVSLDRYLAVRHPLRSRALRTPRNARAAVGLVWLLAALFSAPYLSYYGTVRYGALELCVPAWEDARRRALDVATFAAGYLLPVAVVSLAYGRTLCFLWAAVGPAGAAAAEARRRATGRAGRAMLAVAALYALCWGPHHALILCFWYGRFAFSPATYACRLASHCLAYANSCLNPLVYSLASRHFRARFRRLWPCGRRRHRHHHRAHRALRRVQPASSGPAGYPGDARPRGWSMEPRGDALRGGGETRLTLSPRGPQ

T2: human GALR3 (human)
T2 chain: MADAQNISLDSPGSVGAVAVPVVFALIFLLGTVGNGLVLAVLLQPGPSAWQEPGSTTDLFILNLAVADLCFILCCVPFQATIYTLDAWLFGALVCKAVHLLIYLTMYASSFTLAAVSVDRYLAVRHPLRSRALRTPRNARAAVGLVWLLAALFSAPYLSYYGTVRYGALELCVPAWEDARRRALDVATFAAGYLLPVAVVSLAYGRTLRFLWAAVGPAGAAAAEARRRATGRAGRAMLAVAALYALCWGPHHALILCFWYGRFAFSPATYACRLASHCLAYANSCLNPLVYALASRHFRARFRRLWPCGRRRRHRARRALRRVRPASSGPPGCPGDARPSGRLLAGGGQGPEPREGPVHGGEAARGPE


How the values were obtained:
rat GALR3 [1] = biological target: T1, rat GALR3; experiment: competition, COS-7
rat GALR3 [2] = biological target: T1, rat GALR3; experiment: competition
rat GALR3 [3] = biological target: T1, rat GALR3; experiment: competition, 293-rGalR3-105
rat GALR3 [4] = biological target: T1, rat GALR3; experiment: competition
human GALR3 [5] = biological target: T2, human GALR3; experiment: competition
rat GALR3 [6] = biological target: T1, rat GALR3; experiment: other, 125I-galanin saturation, COS-7 membranes
human GALR3 [7] = biological target: T2, human GALR3; experiment: other, 125I-galanin saturation, L-hGalR3-228 membranes

Binder | Ki (rat GALR3 [1]) | Ki (rat GALR3 [2]) | Ki (rat GALR3 [3]) | Ki (rat GALR3 [4]) | Ki (human GALR3 [5]) | Kd (rat GALR3 [6]) | Kd (human GALR3 [7])
D-Trp2-galanin 1-29 (protein, D-Trp at position 2, mature numbering) KRGWTLNSAGYLLGPHAIDNHRSFHDKYGLAGKRELEPEDEARPGGFDRLQSEDKAIRTIMEFLAFLHLKEAGALGRLPGLPSAASSEDAGQS | > 1000 nM | > 1000 nM | > 1000 nM | > 1000 nM | > 1000 nM |  | 
porcine galanin (protein) KRGWTLNSAGYLLGPHAIDNHRSFHDKYGLAGKRELEPEDEARPGGFDRLQSEDKAIRTIMEFLAFLHLKEAGALGRLPGLPSAASSEDAGQS |  |  |  |  |  | 0.34 nM | 2.57 nM
